Reference: PMC4150794

What was measured:
[1] = test system: RBPMS2-Nter (Homo sapiens); assay: EMSA; details: theoretical Kd, cooperative fit; 100 nM RNA; second complex at 5 uM; EMSA: 20 mM Tris pH 7.4, 100 mM KCl, 1 mM EDTA, 10 ug/ml BSA, 1 mM DTT, 1 U/ul RNaseOUT, 2% glycerol, 20 C 30 min, 10% gel in 1X TBE at 4 C; anisotropy: 20 mM …
Q6ZRY4 = assay: SEC-MALS; Superdex 75 10/300, 20 mM Tris-HCl pH 8, 300 mM NaCl; loaded at 2 mg/ml (RBPMS2-Nter) or 4 mg/ml (RBPMS2-Nter-L49E); monomer to dimer

In the case of 161-nt NOGGIN RNA, the Kd [1] is reported as 2250 nM.
With “RBPMS2-Nter-L49E (human RBPMS2 residues 27-117 with L49E)” the “percent of the protein in the monomer peak” value (Q6ZRY4) was “The majority species (92.4%) has a Mw of 10.6 kDa, as would be expected for the monomer”.
